Our source for the Kd values is publication PMC4963209 (2016).

The Kd is the equilibrium constant for the complex coming apart.

The target in the test is T1, Juno (UniProt Q9EQF4 20-222).
T1 chain: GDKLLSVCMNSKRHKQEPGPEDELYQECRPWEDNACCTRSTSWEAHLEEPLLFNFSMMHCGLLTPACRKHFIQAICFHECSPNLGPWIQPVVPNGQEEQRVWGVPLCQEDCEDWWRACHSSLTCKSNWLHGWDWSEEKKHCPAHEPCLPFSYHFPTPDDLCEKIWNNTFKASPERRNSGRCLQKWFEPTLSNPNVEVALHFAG
Nature of the test: MST.

B1: Izumo1 ectodomain (domain or fragment)
chain: CIKCDQFVTDALKTFENTYLNDHLPHDIHKNVMRMVNHEVSSFGVVTSAEDSYLGAVDENTLEQATWSFLKDLKRITDSDLKGELFIKELLWMLRHQKDIFNNLARQFQKEVLCPNKCGVMSQTLIWCLKCEKQLHICRKSLDCGERHIEVHRSEDLVLDCLLSWHRASKGLTDYSFYRVWENSSETLIAKGKEPYLTKSMVGPEDAGNYRCVLDTINQGHATVIRYDVTVLPPKHSEENQPPNIITQEEHETPVHVTPQTPPGQEPESELYPELHPELYPELIPTVAQNPEKKMKTR
modifications: N-acetylglucosamine attached to N204 (seen in the crystal structure)
Regarding B1, the Kd was 0.62 µM.
